Measurements taken from the DeepSol protein solubility set.

Experiment: soluble on expression in E. coli; label from the status in PepcDB or PDB records

Row | Sequence | soluble on expression in E. coli
1 | MSLAANMYRVGDYVYFENSSSNPYLVRRIEELNKTANGNVEAKVVCLFRRRDISSSLNSLADSNAREFEEESKQPGVSEQQRHQLKHRELFLSRQFESLPATHIRGKCSVTLLNETDILSQYLEKEDCFFYSLVFDPVQKTLLADQGEIRVGCKYQAEIPDRLVEGESDNRNQQKMEMKVWDPDNPLTDRQIDQFLVVARAVGTFARALDCSSSIRQPSLHMSAAAASRDITLFHAMDTLQRNGYDLAKAMSTEGHHHHHH | not soluble
2 | MGGEQRETNLSIRGKAYIVGAFEHPLRYAPAHSVAQLHAECALGALADAGLTLADVDGYFCAGDAGASPATLVDHMNLRLRHVDGTEIGGGSYLALIGHAAQAIASGKCRVALITLAGKPRSAGQATGTEARQPGPDRPASAWEAPYRWTVAGIYGNFARRHMHEYGTTSEQLAWVKVAASHHAQHNEHALLRKVYSVEDVLASPMIADPLHRLDCCVITDGGGALVLAAPEVARSLARPRIRVLGCGETIRTNNGGHHADMLHTGAQRSGPAAFAEAGVTPADIKYASVYDNFTIMVIMQLEDLGFCEKGAGGRFVADGNLISGTGRLPWNTDGGGLCNNHPANRGGITKAIEAVRQLRGEAHPSVQVPNCDLALAAGPGLVFGVGHSHATVILERE | not soluble
3 | MINLPAEGHVNPTLSLVKAFTERGDHVHYITTEHFKGRIEDLGATVYTHPDLLKDISIDTETSYGLNSFFHVHVQTSLYILEITKQLCESINFDFVIYDIFGAGELVKEYLQIPGIVSSPIFLIPTEFLETLPFHPNAEIPFQPDEISEQLLYRMEHEFGVKPKNNLQFMHNKGDITLVYTSRYFQPNSDLFGENNIFIGPSISKRKTNVEFPLELLKGKKVIYISMGTLLEGLEPFFNTCIDTFSDFKGVVVMAIGDRNDRSKIKKAPDNFIIASYVLQSEILNEADVFITHGGMNSVHDAIYFNVPFVIIPHDKDQPMIAQRLTELEAAHRLLKEHVNVQSLKEAVTDVLLNEKYKHGIRKLKDSFLQCGGAKEAISVIKSLLNK | not soluble
4 | MGSDKIHHHHHHMLNRVHLNGLRAVETVARLGSLAAAAGELNVSVSAVSQQISRTEKQLGQALFERTASGLVLTEFGAAFATRLGAGFRELAQAVALADEASQCTLVVSVAPAFASKWLLPRLSRHFDRHPNVLLRIDASVRLANLDHSDVDIAIRLGDGEWPGVRAELLLAQEVFPVCAPSIAAKLRSIEDLAQTCAITDERSMISWDSWFKAAGVEPVTFLKGARFTDPMLCLESAIAGHGVMLAWQLLTADALTDGRLVAPFGVRAESGLGYWMVTSATKAESRKVHDFKAWIREEIETTMAQFRTLDSAA | not soluble
5 | HYTSVPNIMKVIKPLFLDKLNQSFLDAYDDYTKLENLLTRIGKIKFFDPACGSGNFLIITYKELRRMEINIIKRLQELLGEYLYVPSVTLSQFYGIEIEDFAHDVAKLSLWIAEHQMNEELKNEVHNAVRPTLPLHTAGDIRCANAIRVEWTEVCPAQGSEEVYVFGNPPYLGSKKQNKEHKSDMLSIFGKVKNGKMLDYISAWFYFGAKYASTTNAKVAFVSTNSVTQGEQVSILWNELFKFGI | not soluble
6 | MVDIEALQKAIGVTSLSYDEDDDDDDENDAFYSSSHRVSHNYNQPPLPPIPTRDDMSNYSSSRNTPLVRRD | not soluble
7 | GPGSMVERTADQRIRTTEWEEVQYKFGNRVGKYATNEVELLAQKIADNNLNAPLKAYDPHEEKVMDKVERGGYDTGRAEEEGGPAFDDALPDDDDEALAAFRRKRLAELQRQKEVERFGVLRHVSGADYMTEVTEASSTNWVVAVLIKPGHDNCEALLSVMRVAAQRHRDVKFLSMVSTEAIKNFPDRHLPCVLLYRDKKLENQLTEVASWKGKQNRLSLESVERVLHRYGVIRNTDYDHDDDDDDA | not soluble
8 | MFAPSTVYTYGHHGSGTDEDDGQQVMPGMDNGDGQCMVCGDRSAGKHYGVMACYGCKGFFRRTIRSQQTYTCRFTQKCAIDKDQRNACRYCRFQRCLTVGMEPEAIRPDRDVIGKQKNPRKKKMKSDTNSGSIDASLPSPNGCDSPVSNNEDVILSFLLDVEDQATCGNNHITMPIGISMMMKNDPDFDVSTLFHSQYVRNQESFPITYAVGRTASVEQLIAALRRYVLSAVHWIDALFNLAHLTEIHDKTTLLKSVIGPFTIFNIAARTAQISDGDLICLCNKSTINRQPARHLLDTNLVGNNFVGRVIDDLVFPTKKLALTNPEITILSALIILDPDARGLSQETSQALLGIRDRVQNALFNLIRDNSNNMTSVTSRFGNLLLLFPPLAKLSSLIGENVQLAKMFGIPIDSLLVELYVDADSPELISQGSHARERSDVSTQTASLEGASASMTPDVTSSEFVKMEQNESPSSSEEPMCIGAPATSSANAVATNLAADLLGLLPNFDATGLDLASAAAAAATSVNYSHFYGFGNLGGSLDDSSSSGTGSVGSFAPHSAPPISNNVNPFAVHGFFDNSAPNTGVVHNQPFRFV | not soluble
9 | MSLTQQITLIKDKILSDNYFTLHNITYDLTRKDGEVIRHKREVYDRGNGATILLYNTKKKTVVLIRQFRVATWVNGNESGQLIESCAGLLDNDEPEVCIRKEAIEETGYEVGEVRKLFELYMSPGGVTELIHFFIAEYSDNQRANAGGGVEDEDIEVLELPFSQALEMIKTGEIRDGKTVLLLNYLQTSHLMDEGGSHHHHHH | soluble
10 | MGSDKIHHHHHHMGMQARYDGVAVCAPITVPYVRFSPESAHWWTGAALRALGQKTGLNAGDIDGFCFASFSSAPDTVVGMVQHLGLSPRWMDHIPTGGASGIMALRRAARAVQCGDAEVVACVAADTNQIDSYRQTLAGFSRFSQDATYPYGFGGPNATFALITDNFMRQFGTTRETFGKLCVAQRENALSNPLALMKKPLTIEHYMNARPISDPVHLFDCVMPCAGAEAFLVTTPDKAEQLGLSTARILSTIERHNAFADDTVQFRGGWERDQEALWDRAGCGPGDVQCVQVYDDYPVIVAMQLADLGFCSKPGLNDFIAANEFTISGSLPLNTNGGQLSAGQAGAAGGFQNVTEGLRQILQCPLGEQVSDAHRALVSGFGLVNYDRGTCTGAAVLQREALR | not soluble
11 | MGSDKIHHHHHHMTRKRAKTHSVKKAPLFVLTSSPNPKRTTSNKSAGIWSYWTRRTAYAMSTHIIPRLQKVIDGEDQGGISKAVNWQGGGGFRYFRLAPTLIVNDKWGNQIINPDYNPEMLAEALAKLEGLPDFSWILELGSGFAFVGRQYRLEVNGDEFFIDLLFYHIRLKCYVVVELKAAAFKPEHAGQLNFYLAAVDAQVKAPDDNPTIGLLLCKTQNRLVAEYALSDIDKPIGIAEYELVRALPEPLVTNLPTVEQLESELSDWQEDGEFFGV | not soluble
12 | MISITSAEVGMKINEWHRHIQKFNVTDAEMLKAEIERDIEVMEEDQDLLIYYQLMAFRHKIMLEYTLPSDENRMELSEYLNKIEGHKKKLDNMRAYYYNFFRGMYEFRNGEYTRAITYYKKAERKIPTISDKIEKAEFYFKLSEVYYHMKMTHISMHYAELSYNIYKKHELYSVRRIQCHFVIAGNYDDLENHEKALPHLQEALKGAELLKSKNTHIYATAFFNLGNCYHKMDNLNKAARYIEQALVQYRKINSDVLPQAYHDLALIYFKQGKKGQAMDCFRKGIRSAVDFKDELFMNLFEALDVLYIRNGDTPKLLNIFSRLENGKGYPYLEELALLGGNLFDYNGKIEDSIICFKK | not soluble
13 | VIVYGDYNNDGNVDALDFAGLKKYIMAADHAYVKNLDVNLDNEVNSTDLAILKKYLLGMVSKLPSN | soluble
14 | MSLTMDVPPTIHVPLPPTSYPAFDAAIFTDIGGRKHQEDRFTLCPQLVPGRDDCAFFGVFDGTVGDFASENVKDLVVPQLISSPAWQEVTEMLRSDVPATEVDEKLPQLLDQAVDDMYKNADNELVKMCEQLNKDYASSTSVTAVLAKGFVAVGHLGDSRIAMGVETPNGLNCEFLTVDHKPDMPHEKLRIMRNGGSVEYLHNHNNKPFIRGGDFSFRKSRGEQPMQLQYSRAFGGKDLKMYGLSNQPDVRVVRVTPQHRVMILATDGLWDVMSAAQAVEIAMQARQEGRNPAQALVEMTLAEQQSRNQSADNITAMTVFFKKTDEGHHHHHH | soluble
